Like-named read-outs stand apart in the source and are kept apart here. Blank lines part the entries; values can stand above or below the binder they belong to.
Experiments:
[1] = biological target: T1, human EGFR soluble extracellular region with C-terminal poly-histidine tag (hEGFR) (UniProt P00533 25-638); test: SPR
[2] = biological target: T1, human EGFR soluble extracellular region …; test: SPR; remark: listed apart in the source

B1: 10E6 chimeric antibody (antibody, V domains shown)
VH: DVQLQESGPGRVKPSQSLSLTCTVTGYSLTSDYAWSWIRQFPGNRLEWMVYITYSGITTYNPSLKSRISITRDTSKNQFFLQLNSVTTEDTATYYCAGGDYGLSSWFAYWGQGTLVTVSS
VL: DIVLTQSPVTLSVTPGDRVSLSCRASQSISNYLHWYQQKSHESPRLLIKYASQSISGIPSRFSGSGSGTDFTLSINSVETEDFGMYFCQQSNNWPYTFGGGTKLEIKR
Kd [1]: 10.8 nM

B3: 3A6 chimeric antibody (antibody, V domains shown)
VH: QVQLKQSGPGLVQPSQSLSITCTVSGFSLTSYGVHWVRQSPGKGLEWLGVIWSGGTTDYNAAFISRLSISQDNSKSQVFFKMNSLQANDTAIYYCAGNQGRTVRPTWFAYWGQGTLVTVSS
VL: DILLTQSPAILSVSPGERVSFSCRASQSIGTSIHWYQQRANGSPRLLIKYASESISGIPSRFSGSGSGTDFTLSINSVESEDIAHYYCQQNSNWPLTFGAGTKLELKR
Kd [1]: 346 nM

Continued, values first:

Kd [2]: 20.1 nM
B2: 10E6-best-fit (antibody, V domains shown)
VH: QVQLQESGPGLVKPSQTLSLTCTVSGYSLTSDYAWSWIRQPPGKGLEWMVYITYSGITTYNPSLKSRITISRDTSKNQFSLKLSSVTAADTAVYYCAGGDYGLSSWFAYWGQGTTVTVSS
VL: EIVLTQSPDFQSVTPKEKVTITCRASQSISNYLHWYQQKPDQSPKLLIKYASQSISGVPSRFSGSGSGTDFTLTINSLEAEDAATYFCQQSNNWPYTFGQGTKLEIKR

Kd [2]: 14.5 nM
B4: 10E6-stable (antibody, V domains shown)
VH: EVQLVESGGGLVQPGGSLRLSCAVSGYSLTSDYAWSWIRQAPGKGLEWMVYITYSGITTYNPSLKSRITISRDTSKNTFYLQMNSLRAEDTAVYYCAGGDYGLSSWFAYWGQGTMVTVSS
VL: DIQLTQSPSSLSASVGDRVTITCRASQSISNYLHWYQQKPGKAPKLLIKYASQSISGVPSRFSGSGSGTDFTLTISSLQPEDFATYFCQQSNNWPYTFGQGTKVEIKR
